Results taken from patent US20170275666A1, “Methods for Preparing Rebaudioside I and Uses” (The Coca-Cola Company, priority 2014, published 2017).

Experiment: Directed evolution of UGT76G1, conversion of Rebaudioside D to Rebaudioside M (round 1)
Type: biochemical
Details: 0.5 mM Rebaudioside D, 2.5 mM UDP-Glucose, 100 μL fresh lysate, 30° C., pH 7.2
Summary of the method: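 UGT76G1 variants carrying 3-5 designed mutations were expressed in E. coli BL21(DE3) (pET30a+, 44 h at 20° C) and lysed. Lysate was reacted with 0.5 mM Reb D, 2.5 mM UDP-glucose, 3 mM MgCl2 in 50 mM phosphate pH 7.2 at 30° C; HPLC-CAD sampling at 2, 4, 7, 24 h gave conversion and initial rate.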

Molecule | Conversion Reb D to Reb M after 24 h (%) | initial rate (Reb M area/min)
UGT76G1var85: UGT76G1 variant, mutations T284L_G348P_F377C_P382M_N409R (protein, UniProt Q6VAB4 1-458, looked up, variant T284L G348P F377C P382M N409R) UDP-glycosyltransferase 76G1: MENKTETTVRRRRRIILFPVPFQGHINPILQLANVLYSKGFSITIFHTNFNKPKTSNYPHFTFRFILDNDPQDERISNLPTHGPLAGMRIPIINEHGADELRRELELLMLASEEDEEVSCLITDALWYFAQSVADSLNLRRLVLMTSSLFNFHAHVSLPQFDELGYLDPDDKTRLEEQASGFPMLKVKDIKSAYSNWQILKEILGKMIKQTKASSGVIWNSFKELEESELETVIREIPAPSFLIPLPKHLTASSSSLLDHDRTVFQWLDQQPPSSVLYVSFGSLSEVDEKDFLEIARGLVDSKQSFLWVVRPGFVKGSTWVEPLPDGFLGERGRIVKWVPQQEVLAHPAIGAFWTHSGWNSTLESVCEGVPMIFSDCGLDQMLNARYMSDVLKVGVYLENGWERGEIARAIRRVMVDEEGEYIRQNARVLKQKADVSLMKGGSSYESLESLVSYISSL | 1.8% | 4.0E+05 Reb M area/min
UGT76G1var91: UGT76G1 variant, mutations E224A_L246F_T263S_F265I_Q342K (protein, UniProt Q6VAB4 1-458, looked up, variant E224A L246F T263S F265I Q342K) UDP-glycosyltransferase 76G1: MENKTETTVRRRRRIILFPVPFQGHINPILQLANVLYSKGFSITIFHTNFNKPKTSNYPHFTFRFILDNDPQDERISNLPTHGPLAGMRIPIINEHGADELRRELELLMLASEEDEEVSCLITDALWYFAQSVADSLNLRRLVLMTSSLFNFHAHVSLPQFDELGYLDPDDKTRLEEQASGFPMLKVKDIKSAYSNWQILKEILGKMIKQTKASSGVIWNSFKALEESELETVIREIPAPSFLIPFPKHLTASSSSLLDHDRSVIQWLDQQPPSSVLYVSFGSTSEVDEKDFLEIARGLVDSKQSFLWVVRPGFVKGSTWVEPLPDGFLGERGRIVKWVPQKEVLAHGAIGAFWTHSGWNSTLESVCEGVPMIFSDFGLDQPLNARYMSDVLKVGVYLENGWERGEIANAIRRVMVDEEGEYIRQNARVLKQKADVSLMKGGSSYESLESLVSYISSL | 1.2% | 2.3E+05 Reb M area/min
UGT76G1var88: UGT76G1 variant, mutations A239V_T284I_V310I_Q342K_L379A (protein, UniProt Q6VAB4 1-458, looked up, variant A239V T284I V310I Q342K L379A) UDP-glycosyltransferase 76G1: MENKTETTVRRRRRIILFPVPFQGHINPILQLANVLYSKGFSITIFHTNFNKPKTSNYPHFTFRFILDNDPQDERISNLPTHGPLAGMRIPIINEHGADELRRELELLMLASEEDEEVSCLITDALWYFAQSVADSLNLRRLVLMTSSLFNFHAHVSLPQFDELGYLDPDDKTRLEEQASGFPMLKVKDIKSAYSNWQILKEILGKMIKQTKASSGVIWNSFKELEESELETVIREIPVPSFLIPLPKHLTASSSSLLDHDRTVFQWLDQQPPSSVLYVSFGSISEVDEKDFLEIARGLVDSKQSFLWVIRPGFVKGSTWVEPLPDGFLGERGRIVKWVPQKEVLAHGAIGAFWTHSGWNSTLESVCEGVPMIFSDFGADQPLNARYMSDVLKVGVYLENGWERGEIANAIRRVMVDEEGEYIRQNARVLKQKADVSLMKGGSSYESLESLVSYISSL | 1.6% | 3.8E+05 Reb M area/min
UGT76G1var93: UGT76G1 variant, mutations I43V_Q266E_S375M_S389E_V394I (protein, UniProt Q6VAB4 1-458, looked up, variant I43V Q266E S375M S389E V394I) UDP-glycosyltransferase 76G1: MENKTETTVRRRRRIILFPVPFQGHINPILQLANVLYSKGFSVTIFHTNFNKPKTSNYPHFTFRFILDNDPQDERISNLPTHGPLAGMRIPIINEHGADELRRELELLMLASEEDEEVSCLITDALWYFAQSVADSLNLRRLVLMTSSLFNFHAHVSLPQFDELGYLDPDDKTRLEEQASGFPMLKVKDIKSAYSNWQILKEILGKMIKQTKASSGVIWNSFKELEESELETVIREIPAPSFLIPLPKHLTASSSSLLDHDRTVFEWLDQQPPSSVLYVSFGSTSEVDEKDFLEIARGLVDSKQSFLWVVRPGFVKGSTWVEPLPDGFLGERGRIVKWVPQQEVLAHGAIGAFWTHSGWNSTLESVCEGVPMIFMDFGLDQPLNARYMEDVLKIGVYLENGWERGEIANAIRRVMVDEEGEYIRQNARVLKQKADVSLMKGGSSYESLESLVSYISSL | 1.8% | 4.5E+05 Reb M area/min
UGT76G1var6: UGT76G1 variant, mutations Q266S_S357N_I373L (protein, UniProt Q6VAB4 1-458, looked up, variant Q266S S357N I373L) UDP-glycosyltransferase 76G1: MENKTETTVRRRRRIILFPVPFQGHINPILQLANVLYSKGFSITIFHTNFNKPKTSNYPHFTFRFILDNDPQDERISNLPTHGPLAGMRIPIINEHGADELRRELELLMLASEEDEEVSCLITDALWYFAQSVADSLNLRRLVLMTSSLFNFHAHVSLPQFDELGYLDPDDKTRLEEQASGFPMLKVKDIKSAYSNWQILKEILGKMIKQTKASSGVIWNSFKELEESELETVIREIPAPSFLIPLPKHLTASSSSLLDHDRTVFSWLDQQPPSSVLYVSFGSTSEVDEKDFLEIARGLVDSKQSFLWVVRPGFVKGSTWVEPLPDGFLGERGRIVKWVPQQEVLAHGAIGAFWTHNGWNSTLESVCEGVPMLFSDFGLDQPLNARYMSDVLKVGVYLENGWERGEIANAIRRVMVDEEGEYIRQNARVLKQKADVSLMKGGSSYESLESLVSYISSL | 0.5% | 1.8E+06 Reb M area/min
UGT76G1var86: UGT76G1 variant, mutations E224A_T284L_V396F_Y397E_I407V (protein, UniProt Q6VAB4 1-458, looked up, variant E224A T284L V396F Y397E I407V) UDP-glycosyltransferase 76G1: MENKTETTVRRRRRIILFPVPFQGHINPILQLANVLYSKGFSITIFHTNFNKPKTSNYPHFTFRFILDNDPQDERISNLPTHGPLAGMRIPIINEHGADELRRELELLMLASEEDEEVSCLITDALWYFAQSVADSLNLRRLVLMTSSLFNFHAHVSLPQFDELGYLDPDDKTRLEEQASGFPMLKVKDIKSAYSNWQILKEILGKMIKQTKASSGVIWNSFKALEESELETVIREIPAPSFLIPLPKHLTASSSSLLDHDRTVFQWLDQQPPSSVLYVSFGSLSEVDEKDFLEIARGLVDSKQSFLWVVRPGFVKGSTWVEPLPDGFLGERGRIVKWVPQQEVLAHGAIGAFWTHSGWNSTLESVCEGVPMIFSDFGLDQPLNARYMSDVLKVGFELENGWERGEVANAIRRVMVDEEGEYIRQNARVLKQKADVSLMKGGSSYESLESLVSYISSL | 1.6% | 3.8E+05 Reb M area/min
UGT76G1var89: UGT76G1 variant, mutations F41L_E229A_E231A_F265L_P272A (protein, UniProt Q6VAB4 1-458, looked up, variant F41L E229A E231A F265L P272A) UDP-glycosyltransferase 76G1: MENKTETTVRRRRRIILFPVPFQGHINPILQLANVLYSKGLSITIFHTNFNKPKTSNYPHFTFRFILDNDPQDERISNLPTHGPLAGMRIPIINEHGADELRRELELLMLASEEDEEVSCLITDALWYFAQSVADSLNLRRLVLMTSSLFNFHAHVSLPQFDELGYLDPDDKTRLEEQASGFPMLKVKDIKSAYSNWQILKEILGKMIKQTKASSGVIWNSFKELEESALATVIREIPAPSFLIPLPKHLTASSSSLLDHDRTVLQWLDQQAPSSVLYVSFGSTSEVDEKDFLEIARGLVDSKQSFLWVVRPGFVKGSTWVEPLPDGFLGERGRIVKWVPQQEVLAHGAIGAFWTHSGWNSTLESVCEGVPMIFSDFGLDQPLNARYMSDVLKVGVYLENGWERGEIANAIRRVMVDEEGEYIRQNARVLKQKADVSLMKGGSSYESLESLVSYISSL | 1.2% | 2.1E+05 Reb M area/min
UGT76G1var87: UGT76G1 variant, mutations S241I_L243A_V300A_F314S_N409R (protein, UniProt Q6VAB4 1-458, looked up, variant S241I L243A V300A F314S N409R) UDP-glycosyltransferase 76G1: MENKTETTVRRRRRIILFPVPFQGHINPILQLANVLYSKGFSITIFHTNFNKPKTSNYPHFTFRFILDNDPQDERISNLPTHGPLAGMRIPIINEHGADELRRELELLMLASEEDEEVSCLITDALWYFAQSVADSLNLRRLVLMTSSLFNFHAHVSLPQFDELGYLDPDDKTRLEEQASGFPMLKVKDIKSAYSNWQILKEILGKMIKQTKASSGVIWNSFKELEESELETVIREIPAPIFAIPLPKHLTASSSSLLDHDRTVFQWLDQQPPSSVLYVSFGSTSEVDEKDFLEIARGLADSKQSFLWVVRPGSVKGSTWVEPLPDGFLGERGRIVKWVPQQEVLAHGAIGAFWTHSGWNSTLESVCEGVPMIFSDFGLDQPLNARYMSDVLKVGVYLENGWERGEIARAIRRVMVDEEGEYIRQNARVLKQKADVSLMKGGSSYESLESLVSYISSL | 35.7% | 2.1E+07 Reb M area/min
UGT76G1var90: UGT76G1 variant, mutations E231A_S241I_S274G_Y397Q_Q425E (protein, UniProt Q6VAB4 1-458, looked up, variant E231A S241I S274G Y397Q Q425E) UDP-glycosyltransferase 76G1: MENKTETTVRRRRRIILFPVPFQGHINPILQLANVLYSKGFSITIFHTNFNKPKTSNYPHFTFRFILDNDPQDERISNLPTHGPLAGMRIPIINEHGADELRRELELLMLASEEDEEVSCLITDALWYFAQSVADSLNLRRLVLMTSSLFNFHAHVSLPQFDELGYLDPDDKTRLEEQASGFPMLKVKDIKSAYSNWQILKEILGKMIKQTKASSGVIWNSFKELEESELATVIREIPAPIFLIPLPKHLTASSSSLLDHDRTVFQWLDQQPPGSVLYVSFGSTSEVDEKDFLEIARGLVDSKQSFLWVVRPGFVKGSTWVEPLPDGFLGERGRIVKWVPQQEVLAHGAIGAFWTHSGWNSTLESVCEGVPMIFSDFGLDQPLNARYMSDVLKVGVQLENGWERGEIANAIRRVMVDEEGEYIRENARVLKQKADVSLMKGGSSYESLESLVSYISSL | 34.5% | 1.9E+07 Reb M area/min
UGT76G1var92: UGT76G1 variant, mutations K303G_S357N_V366I_V394I_I407V (protein, UniProt Q6VAB4 1-458, looked up, variant K303G S357N V366I V394I I407V) UDP-glycosyltransferase 76G1: MENKTETTVRRRRRIILFPVPFQGHINPILQLANVLYSKGFSITIFHTNFNKPKTSNYPHFTFRFILDNDPQDERISNLPTHGPLAGMRIPIINEHGADELRRELELLMLASEEDEEVSCLITDALWYFAQSVADSLNLRRLVLMTSSLFNFHAHVSLPQFDELGYLDPDDKTRLEEQASGFPMLKVKDIKSAYSNWQILKEILGKMIKQTKASSGVIWNSFKELEESELETVIREIPAPSFLIPLPKHLTASSSSLLDHDRTVFQWLDQQPPSSVLYVSFGSTSEVDEKDFLEIARGLVDSGQSFLWVVRPGFVKGSTWVEPLPDGFLGERGRIVKWVPQQEVLAHGAIGAFWTHNGWNSTLESICEGVPMIFSDFGLDQPLNARYMSDVLKIGVYLENGWERGEVANAIRRVMVDEEGEYIRQNARVLKQKADVSLMKGGSSYESLESLVSYISSL | 1.6% | 3.6E+05 Reb M area/min
